Results on 19 molecules are retold here after US20260327301 (published 2026).

Test [1] addresses T1, canine IL-31 (dog).
T1 chain: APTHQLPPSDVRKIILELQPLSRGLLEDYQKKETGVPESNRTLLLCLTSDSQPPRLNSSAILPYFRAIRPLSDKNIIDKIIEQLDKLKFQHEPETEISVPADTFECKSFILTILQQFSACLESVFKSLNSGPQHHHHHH
Put plainly: BLI. (BLI is a label-free optical method that tracks binding on a fibre tip over time.)

Test [2] deals with T1, canine IL-31. Put plainly: BLI.
Test [3] has as its target T1, canine IL-31. Put plainly: ELISA.
Test [4] concerns the target T1, canine IL-31. Put plainly: ELISA. A general note: ELISA stands for enzyme-linked immunosorbent assay.
The target of test [5] is T1, canine IL-31. Put plainly: BLI.
Test [6] has as its target T1, canine IL-31. Put plainly: ELISA.

Residue numbers refer to the chain shown, from its start. Where two headings read alike, the source gives them in different places.

B1: Chimeric Antibody 47C1-1 (antibody, V domains shown)
VH: QSVEESGGRLVTPGTPLTLTCTVSGFSLSTYAMNWVRQAPGKGLEWIGIIYSNGDGYYASWAKGRYTISKTSSTTVDLKVTSPTTEDTATYFCARGIYSQTTGYFNLWGQGTLVTVSS
VL: DIVMTQTPASVEAAVGGIVIIKCQASESIGNTLAWYQQKPGQPPKLLIYGASTLASGVSSRFKGSGSGTEVTLTISDLECADAATYYCQSYWSSTTTFRDTFGGGTEVVVKR
One may read the Kd as the constant that tells how readily two partners part at equilibrium. A higher Kd goes with lower affinity. The EC50 is the concentration needed to bring the measured effect to its halfway point. Lower therefore signals an effect from little substance. With B1, the Kd in test [1] and in test [2] was 8.32 nM throughout. Moreover, the EC50 was determined as 0.102 µg/mL in test [3] and 0.0985 µg/mL in test [4].

B2: 47C1-1 rabbit-derived (antibody, V domains shown)
VH: B1 VH
VL: DIVMTQTPASVEAAVGGIVIIKCQASESIGNTLAWYQQKPGQPPKLLIYGASTLASGVSSRFKGSGSGTEVTLTISDLECADAATYYCQSYWSSTTTFRDTFGGGTEVVVK
Regarding B2, the Kd in test [1], in test [2] and in test [5] was 3.75 nM throughout. This molecule also returned an EC50 in test [6] of 0.00179 µg/mL.

B3: Caninized 38E2-1-H3L3 (antibody, V domains shown)
VH: EVQLVESGGDLVKPGGSLRLSCVASAFSLSGYYMGWVRQAPGKGLEWISIIGGSSNTFYASWAKGRFTISKDNSKNTLYLQMNSLRAEDTAVYFCARHGDTDYISGTYFDLWGQGTLVTVSS
VL: EIVMTQSPASLSLSQGEKVTITCQASQSISIYLAWYQQKPGQPPKLLIYRASTLASGVPSRFSGSGSGTDFSFTITSLQPEDVATYYCQQGYEDSNVESLFGQGTKVEIKR
The molecule B3 displayed a Kd in test [1] of 5.35 nM. In test [3], this molecule displayed an EC50 of 0.0934 µg/mL.

B4: Caninized 38E2-1-H3L2 (antibody, V domains shown)
VH: B3 VH
VL: B3 VL with T76S
In test [1], B4 yielded a Kd of 8.04 nM. In test [3], this molecule came in with an EC50 of 0.0978 µg/mL.

B5: Caninized 47C1-1-H3L3 (antibody, V domains shown)
VH: EVQLVESGGDLVKPGGSLRLSCVASGFSLSTYAMNWVRQAPGKGLEWISIIYSNGDGYYASWAKGRFTISRDNSKNTLYLQMNSLRAEDTAVYYCARGIYSQTTGYFNLWGQGTLVTVSS
VL: MDTRAPTQLLGLLLLWLPGARCEIVMTQTPASLSLSQEGKVTITCQASESIGNTLAWYQQKPGQPPKLLIYGASTLASGVPSRFSGSGSGTDFTFTINSLQPEDVATYYCQSYWSSTTTFRDTFGQGTKVEIKR
In test [1], B5 came in with a Kd of 15.5 nM. The EC50 in test [3] is 0.105 µg/mL.

B6: Caninized 47C1-1-H2L2 (antibody, V domains shown)
VH: B5 VH with S74A
VL: B5 VL
B6: binding in test [1] was put at a Kd of 15.1 nM. This molecule came in with a concentration giving a half-maximal response (EC50) in test [3] of 0.113 µg/mL.

B7: 38E2-1 rabbit-derived (antibody, V domains shown)
VH: QSLEESGGRLVTPGTPLTLTCTASAFSLSGYYMGWVRQAPGKGLEYIGIIGGSSNTFYASWAKGRFTISKTPTTVDLKITSPTTEDTATYFCARHGDTDYISGTYFDLWGQGTLVTVSS
VL: AYHMTQTPASVEVPVGGTVTIKCQASQSISIYLAWYQQKPGQPPKLLIYRASTLASGVPSRFIGSGSGTEFSLTISDLECADAATYYCQQGYEDSNVESLFGGGTEVVVK
In the case of B7, the Kd stood at 0.815 nM in test [1], 0.815 nM in test [2] and 2.55 nM in test [5]. For the same molecule, the EC50 in test [6] was 0.000915 µg/mL.

B8: Chimeric Antibody 38E2-1 (antibody, V domains shown)
VH: B7 VH
VL: AYHMTQTPASVEVPVGGTVTIKCQASQSISIYLAWYQQKPGQPPKLLIYRASTLASGVPSRFIGSGSGTEFSLTISDLECADAATYYCQQGYEDSNVESLFGGGTEVVVKR
Consider B8, for which the Kd in test [1] and in test [2] was 2.49 nM throughout. In addition, the EC50 in test [3] was 0.0928 µg/mL; in test [4], 0.094 µg/mL.

B9: 18E8-1 rabbit-derived (antibody, V domains shown)
VH: B7 VH
VL: B7 VL with R50K
As for B9, a half-maximal effect in test [6] (EC50) was put at 0.00195 µg/mL.

B10: 44B4-1 rabbit-derived (antibody, V domains shown)
VH: QSLEESGGRLVTPGTPLTLTCTASGFSLSNSYMGWVRQAPGKGLEYIGFIDTGGTTYYASWAKGRFTISRTSTTVDLKMTSPTTEDTATYFCAKGPDDYFFNLWGQGTLVTVSS
VL: DIVMTQTPASVEAAVGGTITINCQASESISSWLAWYQQKPGQPPKLLIYKASTLESGVPSRFKGSGSGTEFTLTISGVQCADAATYYCQVYYFSYNSYNFFGGGTEVVVK
In test [6], B10 registered an EC50 of 0.000232 µg/mL.

B11: 30A11-1 rabbit-derived (antibody, V domains shown)
VH: QEQLKESGGGLVTPGGTLTLTCTASGFTISGYYMNWVRQAPGKGLEWIGFIYSPSTTYYANWAKGRFTISKTSTTVDLKITSPTTEDTATYFCARGHTTEIRLDLWGQGTLVTVSS
VL: AVLTQTPSPVSAAVGGTVSISCQSSESVYKNNRLSWFQQKPGQPPKLLIFDASTLASGVSSRFKGSGSGTQFTLTISGVQCDDAATYYCLGEFRDSSDNSFGGGTEVVVK
B11: a half-maximal response in test [6] (EC50) required 0.00282 µg/mL.

B12: 19C7-1 rabbit-derived (antibody, V domains shown)
VH: QSVEESGGRLVTPGTPLTLTCTVSGFSLNSYAMGWVRQAPGKGLEYIGIINSSGSTWYATWVKGRFTISKTSTTVDLKMTSVTTEDTATYFCARNRDPFYITDMDLWGQGTLVTVSS
VL: QVLTQTPSSVSAAVGGTVTINCQASQNIYSYLSWYQQKPGQPPKLLIYRASTLASGVPSRFKGSGSGTEFTLTISGVECADAATYYCQQGDSYSDVDNIFGGGTEVVVK
In test [6], B12 registered an EC50 of 0.00321 µg/mL.

B13: 30G5-1 rabbit-derived (antibody, V domains shown)
VH: QSLEESGGRLVTPGGSLTLTCTVSGFSLSSYAMIWVRQAPGEGLEWIGTIDPSDNTDYASWAKGRFTISKTSSTTVDLKLTSLTTEDTATYFCASHSYDDYGRDVWNLWGQGTLVTVSS
VL: IVMTQTPSSKSVPVGDTVTINCQASQSVDNNNDLSWYQQKPGQPPKLLIYYTSSLPSGVPSRFKGSGSGTQFTLTISDLECDDAATYYCVGYKSSTTDATAFGGGTEVMVK
As for B13, a half-maximal effect in test [6] (EC50) was put at 0.00208 µg/mL.

B14: Caninized 35C9-1-H1L2 (antibody, V domains shown)
VH: EVQLVESGGDLVKPGGSLRLSCVASGFTFSSYWMSWVRQAPGKGLQWLSDIYATGSTYYANWATGRFTGSRDNAKNTLYLQMNSLTIEDTATYFCARHSSRSGIDFDLWGQGTLVTVSS
VL: EIVMTQSPASLSLSQEEKVTITCQASQSIGNYLAWYQQKPGQAPKQLIYRASTLASGVPSRFSGSGSGTDFTLTISDLECADVAVYYCQQGYDSNNVDNFFGQGTKVEIKR
On to B14, for which the Kd in test [1] came to 389 nM. The midpoint of the response in test [3], the EC50, lay at 0.158 µg/mL.

B15: Caninized 35C9-1-H1L1 (antibody, V domains shown)
VH: B14 VH
VL: B14 VL with S63K, D70E
As to B15, in test [1], the Kd was found to be 495 nM. For the same molecule, the EC50 in test [3] turned out to be 0.19 µg/mL.

B16: 5H4-2 rabbit-derived (antibody, V domains shown)
VH: QSLEESGGDLVKPGASLTLTCTASGFTLSSDYYMCWVRQAPGKGLELIACITTSTVGTWYASWAKGRFTISKTSSTTVTLQMTSLTAADTATYFCGREDGTYADYFNLWGPGTLVTVSS
VL: AYDMTQTPASVEVAVGGTVTIKCQASQSISSWLAWYQQKPGQRPKLLIYRASTLASGVSSRFKGSGSGTQFTLTISGVECADAATYYCQQGYRSSNLDNAFGGGTEVVVK
As for B16, in test [5], the Kd came out at 113 nM. Also, in test [6], the EC50 was found to be 0.000841 µg/mL.

B17: Chimeric Antibody 35C9-1 (antibody, V domains shown)
VH: QSLEESGGRLVTPGTPLTLTCTASGFSLSSYWMSWVRQAPGKGLEWIGDIYATGSTYYANWATGRFTGSKTSTTVDLTITSPTIEDTATYFCARHSSRSGIDFDLWGQGTLVTVSS
VL: AYDMTQTPASVEAAVGGTVTIKCQASQSIGNYLAWYQQKPGQPPKQLIYRASTLASGVPSRFKGSGSGTEFTLTISDLECADGATYYCQQGYDSNNVDNFFGGGTEVVVRR
B17: the dissociation constant Kd in test [1] and in test [2] was 11.9 nM each time. In addition, the EC50 is 0.103 µg/mL in test [3] and 0.105 µg/mL in test [4].

B18: 35C9-1 rabbit-derived (antibody, V domains shown)
VH: B17 VH
VL: AYDMTQTPASVEAAVGGTVTIKCQASQSIGNYLAWYQQKPGQPPKQLIYRASTLASGVPSRFKGSGSGTEFTLTISDLECADGATYYCQQGYDSNNVDNFFGGGTEVVVR
Take B18: the Kd in test [1], in test [2] and in test [5] was 12.7 nM each time. The same molecule yielded an EC50 in test [6] of 0.0023 µg/mL.

B19: 19D1-1 rabbit-derived (antibody, V domains shown)
VH: B17 VH with T53S, T56E, N60S, A62V, T63N, T78K
VL: B18 VL with G30S, I75M, G83A, F100L, R110K
B19 showed a Kd in test [5] of 43.3 nM. The molecule also displayed an EC50 in test [6] of 0.000196 µg/mL.
